Assay results published in patent US20260193348A1 (ANTENGENE BIOLOGICS, published 2026).
Where a chain is given by its changes, count along the chain named. In names and notes the source's numbering stands.

How the values were obtained:
[1] = biological target: T1, CD3 on T cells / Jurkat cells (human, UniProt P07766 23-207; P04234 22-171; P09693 23-182); test: FACS on Jurkat cells expressing CD3
T1 construct: whole, on cells; Native CD3 complex on CD3+ T cells isolated from normal donors or on Jurkat cells; also called human CD3; CD3+ T cells
T1 sequence (P07766 23-207, chain 1 of 3): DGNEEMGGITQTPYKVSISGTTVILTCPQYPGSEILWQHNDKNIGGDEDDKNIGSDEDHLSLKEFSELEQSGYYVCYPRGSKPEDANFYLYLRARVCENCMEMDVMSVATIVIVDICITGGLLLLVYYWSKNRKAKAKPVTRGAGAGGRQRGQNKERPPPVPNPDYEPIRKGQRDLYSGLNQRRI
T1 sequence (P04234 22-171, chain 2 of 3): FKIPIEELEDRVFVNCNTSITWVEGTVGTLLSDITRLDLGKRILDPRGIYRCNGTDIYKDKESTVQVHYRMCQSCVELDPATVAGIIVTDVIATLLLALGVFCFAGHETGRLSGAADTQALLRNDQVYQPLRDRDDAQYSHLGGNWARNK
T1 sequence (P09693 23-182, chain 3 of 3): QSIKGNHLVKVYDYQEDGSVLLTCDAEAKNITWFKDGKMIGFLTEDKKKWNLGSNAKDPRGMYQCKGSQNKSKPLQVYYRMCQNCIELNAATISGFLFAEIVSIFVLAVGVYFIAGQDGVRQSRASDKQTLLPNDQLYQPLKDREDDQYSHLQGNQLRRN

[2] = biological target: T2, CD20 on DoHH2 cells (human, UniProt P11836 1-297); test: FACS on DoHH2 cells expressing CD20 (FIG. 45E)
T2 construct: whole, on cells; Endogenous CD20 on the human DoHH2 cell line; also called DoHH2 cells expressing CD20
T2 sequence (looked up): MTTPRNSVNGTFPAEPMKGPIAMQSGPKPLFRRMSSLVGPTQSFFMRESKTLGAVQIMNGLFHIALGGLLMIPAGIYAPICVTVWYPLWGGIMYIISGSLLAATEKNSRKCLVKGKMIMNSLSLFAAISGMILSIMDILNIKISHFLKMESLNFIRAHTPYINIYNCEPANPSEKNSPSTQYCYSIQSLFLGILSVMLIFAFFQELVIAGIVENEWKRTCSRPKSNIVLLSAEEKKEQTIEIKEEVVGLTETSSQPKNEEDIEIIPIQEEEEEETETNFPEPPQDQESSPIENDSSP

[3] = biological target: T3, GPRC5D on MM.1S cells (human, UniProt Q9NZD1 1-345); test: FACS on MM.1S cells
T3 construct: whole, on cells; MM.1S is called a GPRC5D positive expressed cell line and human multiple myeloma cells; also called G-protein coupled receptor family C group 5 member D
T3 sequence (Q9NZD1 whole entry): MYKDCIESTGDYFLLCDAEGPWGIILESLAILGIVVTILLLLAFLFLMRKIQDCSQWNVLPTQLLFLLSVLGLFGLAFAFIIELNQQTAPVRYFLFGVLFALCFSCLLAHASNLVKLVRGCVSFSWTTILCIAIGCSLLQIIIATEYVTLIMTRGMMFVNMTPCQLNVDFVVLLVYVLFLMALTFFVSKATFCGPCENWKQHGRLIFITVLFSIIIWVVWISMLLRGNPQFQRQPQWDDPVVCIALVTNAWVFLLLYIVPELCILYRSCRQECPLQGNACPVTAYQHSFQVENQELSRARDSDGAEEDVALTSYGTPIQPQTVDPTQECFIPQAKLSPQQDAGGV

[4] = biological target: T4, CD3 on Jurkat cells (UniProt P07766 23-207; P04234 22-171; P09693 23-182); test: FACS on Jurkat cells
T4 construct: whole, on cells; On the cell, CD3 stands in the TCR-CD3 complex; also called cluster of differentiation 3
T4 sequence (P07766 23-207, chain 1 of 3): as the sequence (P07766 23-207, chain 1 of 3) above
T4 sequence (P04234 22-171, chain 2 of 3): as the sequence (P04234 22-171, chain 2 of 3) above
T4 sequence (P09693 23-182, chain 3 of 3): as the sequence (P09693 23-182, chain 3 of 3) above
Method: (§1) The binding affinities of the generated humanized Fab-scFv-Fab bispecific antibodies were determined by FACS analysis. […] (a) Jurkat cells were washed by Staining Buffer (PBS+1% BSA) in round bottom 96-well plate. [0833] (b) Antibody dilutions and cells were added to each well, incubated at 4 degrees for 1 hour. [0834] (c) Cells were spined down at 300 g for 3 minutes, and the supernatants were discarded. [0835] (d) Cells were washed with Staining Buffer. […] (e) Step (d) was repeated and the cells were incubated for 0.5 hours at 4 degrees with secondary antibody in Staining Buffer. [0837] (f) After incubation, step (d)-(e) were repeated. […] (g) Staining Buffer was added and fluorescence signals were recorded by flow cytometry.
The binding affinities of the generated humanized Fab-scFv-Fab bispecific antibodies were determined by FACS analysis. The ATG-Bis-40E9 described in Example 1 was used as positive control and hIgG1 isotype was used as negative control. The protocol for FACS analysis is described in Example 3.2 above.

[5] = biological target: T3, GPRC5D on MM.1S cells; test: cell-based or functional assay
[6] = biological target: T3, GPRC5D on MM.1S cells; test: cell-based or functional assay; remark: listed apart in the source
[7] = biological target: T3, GPRC5D on MM.1S cells; test: FACS on MM.1S cells; remark: listed apart in the source
Method in brief: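 Binding to MM.1S cells measured by flow cytometry; cells incubated with antibody dilutions for 1 h at 4 degrees in PBS + 1% BSA, washed, then stained with secondary antibody for 0.5 h at 4 degrees before fluorescence read-out.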

[8] = biological target: T4, CD3 on Jurkat cells; test: FACS on Jurkat cells; remark: listed apart in the source
Method: as §1
The binding affinities of the generated humanized Fab-scFv-Fab bispecific antibodies were determined by FACS analysis. The protocol for FACS analysis is identical to that described in Example 3.2, except that different test antibodies were used.

[9] = biological target: T3, GPRC5D on MM.1S cells; test: cell-based or functional assay; remark: listed apart in the source
[10] = biological target: T3, GPRC5D on MM.1S cells; test: cell-based or functional assay; remark: listed apart in the source

B1: ATG201-Y101F-20R (bispecific antibody, human IgG1, kappa, L234A L235A)
heavy 1: not shown
heavy 2: QVQLQQPGAELVKPGASVKMSCKASGYTFTSYNMHWVKQTPGRGLEWIGAIYPGNGDTSYNQKFKGKATLTADKSSSTAYMQLSSLTSEDSAVYYCARSTYYGGDWYFNVWGAGTTVTVSAASTKGPSVFPLAPSSKSTSGGTAALGCLVKDYFPEPVTVSWNSGALTSGVHTFPAVLQSSGLYSLSSVVTVPSSSLGTQTYICNVNHKPSNTKVDKKVEPKSCGGGGSGGGGSEVQLVQSGAEVKKPGSSVKVSCKASGYTFSSYVIHWVRQAPGQCLEWMGYINPYNDVIKYNEKFKGRVTLTSDKSTSTAYMELSSLRSEDTAVYYCARDSFYSYDGFAYWGQGTLVTVSSGGGGSGGGGSGGGGSGGGGSEIVLTQSPDFQSVTPKEKVTITCSASSSVSYMHWYQQKPDQSPKRLIYDTSKLASGVPSRFSGSGSGTDFTLTINSLEAEDAATYYCQQWSSNPPTFGCGTKVEIKGGGGSGGGGSDKTHTCPPCPAPEAAGGPSVFLFPPKPKDTLMISRTPEVTCVVVDVSHEDPEVKFNWYVDGVEVHNAKTKPREEQYNSTYRVVSVLTVLHQDWLNGKEYKCKVSNKALPAPIEKTISKAKGQPREPQVCTLPPSREEMTKNQVSLSCAVKGFYPSDIAVEWESNGQPENNYKTTPPVLDSDGSFFLVSKLTVDKSRWQQGNVFSCSVMHEALHNHYTQKSLSLSPGK
light: QIVLSQSPAILSASPGEKVTMTCRASSSVSYIHWFQQKPGSSPKPWIYATSNLASGVPVRFSGSGSGTSYSLTISRVEAEDAATYYCQQWTSNPPTFGGGTKLEIKRTVAAPSVFIFPPSDEQLKSGTASVVCLLNNFYPREAKVQWKVDNALQSGNSQESVTEQDSKDSTYSLSSTLTLSKADYEKHKVYACEVTHQGLSSPVTKSFNRGEC
notes: CD20xCD3 Fab-scFv-Fab: two C20R Fabs, anti-CD3 scFv 40E9-L2H3-Y101F.H; L234A/L235A
[1]
  binding result: binds
[2]
  EC50: 4.05 nM

B2: ATG201-N55S-20R (bispecific antibody, human IgG1, kappa, L234A L235A)
heavy 1: not shown
heavy 2: B1 heavy 2 with N289S, F335Y
light: B1 light
notes: CD20xCD3 Fab-scFv-Fab: two C20R Fabs, anti-CD3 scFv 40E9-L2H3-N55S.H; L234A/L235A
[1]
  binding result: binds
[2]
  EC50: 3.13 nM

B3: Bis-108+147-S102Q.H (bispecific antibody)
chain 1: EVQLVQSGAEVKKPGASVKVSCKASGYTFTSYVIHWVRQAPGQGLEWMGYFNPYNDGTKYNEEFKGRVTLTSDKSTSTAYMELRSLRSDDTAVYYCARGGVRRYFDVWGQGTTVTVSS
chain 2: EVQLVQSGAEVKKPGSSVKVSCKASGYTFTSYWMHWVRQAPGQCLEWMGNINPSSGATNYNEKFKSRVTLTVDKSTSTAYMELSSLRSEDTAVYYCARDRSQQYYFDYWGQGTTVTVSSGGGGSGGGGSGGGGSGGGGSDIVMTQSPDSLAVSLGERATINCKSSQSLLNSRSRKNYLAWYQQKPGQPPKLLIYWASTRESGVPDRFSGSGSGTDFTLTISSLQAEDVAVYYCTQSYTLRTFGCGTKVEIK
chain 3: DIQMTQSPSSLSASVGDRVTITCRASQDIGSNLNWLQQKPGKAIKRLIYATFGLDSGVPSRFSGSRSGTDFTLTISSLQPEDFATYYCQQYASFPYTFGGGTKVEIK
[3]
  EC50: 1.29 nM
  Top signal: 1820 MFI
[4]
  Top signal: 141 MFI
[5]
  IC50 of T-cell dependent cytotoxicity on MM.1S cells: 2.78 nM
  Top (%) target cell killing, MM.1S cells: 131%
[6]
  EC50, Jurkat-NFAT-Luciferase assay in the presence of MM.1S cells: 0.26 nM
  Top RLU, Jurkat-NFAT-Luciferase assay in the presence of MM.1S cells: 358 RLU

B4: Bis-108+147-R100Q.H (bispecific antibody)
chain 1: B3 chain 1
chain 2: B3 chain 2 with R100Q, Q102S
chain 3: B3 chain 3
[3]
  EC50: 1.87 nM
  Top signal: 1830 MFI
[4]
  Top signal: 50.9 MFI
[5]
  IC50 of T-cell dependent cytotoxicity on MM.1S cells: 7.53 nM
  Top (%) target cell killing, MM.1S cells: 46.3%
[6]
  EC50, Jurkat-NFAT-Luciferase assay in the presence of MM.1S cells: 0.98 nM
  Top RLU, Jurkat-NFAT-Luciferase assay in the presence of MM.1S cells: 39.2 RLU

B5: Bis-108+147-S32T.L (bispecific antibody)
chain 1: B3 chain 1
chain 2: B3 chain 2 with Q102S, S171T
chain 3: B3 chain 3
[3]
  EC50: 2 nM
  Top signal: 2040 MFI
[4]
  Top signal: 158 MFI
[5]
  IC50 of T-cell dependent cytotoxicity on MM.1S cells: 4.76 nM
  Top (%) target cell killing, MM.1S cells: 166%
[6]
  EC50, Jurkat-NFAT-Luciferase assay in the presence of MM.1S cells: 0.22 nM
  Top RLU, Jurkat-NFAT-Luciferase assay in the presence of MM.1S cells: 380 RLU

B6: ATG-Bis-40E9 (bispecific antibody)
heavy: EVQLQQSGPELVKPGASVKMSCKASGYTFTSYVIHWVKQKTGQGLEWIGYFNPYNDGTKYNEEFKGKATLTSDKSSNTAYMELNSLTSDDSAVYFCARGGVRRYFDVWGAGTTVTVSS
heavy (part 1 of 2): B6 heavy
heavy (part 2 of 2): GGGGSGGGGSEVQLQLSGPELVKPGASVKMSCKASGYTFSSYVIHWVKQKPGQGLEWIGYINPYNDVIKYNEKFKGKATLTSDKSSSTAYMELSSLTSEDSAVYYCARDSYYSYDGFAYWGQGTLVTVSAGGGGSGGGGSGGGGSGGGGSQIVLTQSPAIMSASPGEKVTMTCSASSSVSYMHWYQQKSGTSPKRWIYDTSKLASGVPARFSGSGSGTSYSLTISSMEAEDAATYYCQQWSSNPPTFGGGTKVEIKGGGGSGGGGS
light: DIQMTQSPSSLSASLGERVSLTCRASQDIGSNLNWLQQEPDGTIKRLIYATFGLDSGVPKRFSGSRSGSDYSLTISSLESEDFVDYYCQQYASFPYTFGGGTKLEIK
notes: Fab-scFv-Fab format: two anti-GPRC5D Fab domains and one anti-CD3 scFv; LALA mutations; also called chimeric 2+1 bispecific antibody; parental antibody control; not shown: CH1; CL; CH1-hinge-CH2-CH3 with L234A, L235A; CH2-CH3 with L234A, L235A
[3]
  EC50: 2.43 nM
  Top signal: 1880 MFI
[7]
  Ratio of EC50 (relative to ATG-Bis-40E9): 1 ratio
  Ratio of Top MFI (relative to ATG-Bis-40E9): 1 ratio
[4]
  EC50: 74.7 nM
[8]
  Ratio of EC50 (relative to ATG-Bis-40E9): 1 ratio
  Ratio of Top MFI (relative to ATG-Bis-40E9): 1 ratio
[5]
  IC50 of T-cell dependent cytotoxicity on MM.1S cells: 0.00063 nM
  Top (%) target cell killing, MM.1S cells: 99.2%
[6]
  EC50, Jurkat-NFAT-Luciferase assay in the presence of MM.1S cells: 0.011 nM
  Top RLU, Jurkat-NFAT-Luciferase assay in the presence of MM.1S cells: 564 RLU
[9]
  Ratio of IC50 (relative to ATG-Bis-40E9), MM.1S cytotoxicity: 1 ratio
  Ratio of Top cytotoxicity (relative to ATG-Bis-40E9), MM.1S cytotoxicity: 1 ratio
[10]
  Ratio of EC50 (relative to ATG-Bis-40E9), luciferase assay on MM.1S: 1 ratio
  Ratio of Top RLU (relative to ATG-Bis-40E9), luciferase assay on MM.1S: 1 ratio

B7: ATG201-Y101F-200 (bispecific antibody, human IgG1, kappa, L234A L235A)
heavy 1: not shown
heavy 2: EVQLVESGGGLVQPGRSLRLSCAASGFTFNDYAMHWVRQAPGKGLEWVSTISWNSGSIGYADSVKGRFTISRDNAKKSLYLQMNSLRAEDTALYYCAKDIQYGNYYYGMDVWGQGTTVTVSSASTKGPSVFPLAPSSKSTSGGTAALGCLVKDYFPEPVTVSWNSGALTSGVHTFPAVLQSSGLYSLSSVVTVPSSSLGTQTYICNVNHKPSNTKVDKKVEPKSCGGGGSGGGGSEVQLVQSGAEVKKPGSSVKVSCKASGYTFSSYVIHWVRQAPGQCLEWMGYINPYNDVIKYNEKFKGRVTLTSDKSTSTAYMELSSLRSEDTAVYYCARDSFYSYDGFAYWGQGTLVTVSSGGGGSGGGGSGGGGSGGGGSEIVLTQSPDFQSVTPKEKVTITCSASSSVSYMHWYQQKPDQSPKRLIYDTSKLASGVPSRFSGSGSGTDFTLTINSLEAEDAATYYCQQWSSNPPTFGCGTKVEIKGGGGSGGGGSDKTHTCPPCPAPEAAGGPSVFLFPPKPKDTLMISRTPEVTCVVVDVSHEDPEVKFNWYVDGVEVHNAKTKPREEQYNSTYRVVSVLTVLHQDWLNGKEYKCKVSNKALPAPIEKTISKAKGQPREPQVCTLPPSREEMTKNQVSLSCAVKGFYPSDIAVEWESNGQPENNYKTTPPVLDSDGSFFLVSKLTVDKSRWQQGNVFSCSVMHEALHNHYTQKSLSLSPGK
light: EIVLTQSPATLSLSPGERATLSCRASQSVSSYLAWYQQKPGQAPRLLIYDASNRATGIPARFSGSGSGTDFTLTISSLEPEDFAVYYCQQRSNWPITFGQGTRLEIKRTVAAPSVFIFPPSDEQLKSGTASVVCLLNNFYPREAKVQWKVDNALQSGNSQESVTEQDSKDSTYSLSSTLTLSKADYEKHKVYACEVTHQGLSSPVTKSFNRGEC
notes: L234A/L235A; also called ATG201-Y101F-20O
[1]
  binding result: binds
[2]
  EC50: 7.55 nM
